Data from paper PMC9897460.
pKd: −log10 of the molar value.

Legend:
[1] = target: 5FAM-PGC1α_144 coactivator peptide; test: fluorescence polarisation
5FAM-NRIP1_1068 peptide = test: fluorescence polarisation

Substance: PPARγ ligand binding domain (LBD), delipidated (domain or fragment)
- pKd [1]: 5.70
- pKd (5FAM-NRIP1_1068 peptide): 5.08
